According to patent publication US20120135931A1:

Columns and labels:
[1] = test system: s-variegin
[2] = target: human plasma derived thrombin (human), P00734; assay: cell-based or functional assay

Molecule | cleavage of s-variegin by thrombin at 24° C. (RP-HPLC), extent at 360 min [1] | percent inhibition of thrombin amidolytic activity at equimolar concentration [2] [%]
recombinant α-thrombin (based on human α-thrombin sequence) | 360 min was needed for ~90% of cleavage | –
MHKTAPPFDFEAIPEEYL (modifications not checked) [MH18] | – | 15
MHKTAPPFDFEAIPEEYLDDES (modifications not checked) [MH22] | – | 15
